Kd data for one molecule are collected here from paper PMC7195432, “MD2 activation by direct AGE interaction drives inflammatory diabetic cardiomyopathy” (Nature Communications, 2020).

This assay has as its target T1, glucose-derived AGE-modified bovine serum albumin (AGE-BSA) (bovine, UniProt P02769 25-607, advanced glycation end product (AGE) modification, glucose-derived, glycolaldehyde-mediated; the modified residues are not stated).
T1 construct: bovine serum albumin, chemically AGE-modified; A heterogeneous glycated preparation; also called AGE-modified BSA; glucose-derived, glycolaldehyde-mediated AGE-BSA; source: bought: BioVision Incorporated (Cat # 2223), purity >98%
Kind of assay: ITC; Nano-ITC, 25 °C, proteins in ddH2O; AGE-BSA (1 μM) in the cell, MD2 protein solution (5 μM) in the syringe, 20 injections of 2.5 μL; independent model. The following applies: both partners purified.

T1 sequence (P02769 25-607): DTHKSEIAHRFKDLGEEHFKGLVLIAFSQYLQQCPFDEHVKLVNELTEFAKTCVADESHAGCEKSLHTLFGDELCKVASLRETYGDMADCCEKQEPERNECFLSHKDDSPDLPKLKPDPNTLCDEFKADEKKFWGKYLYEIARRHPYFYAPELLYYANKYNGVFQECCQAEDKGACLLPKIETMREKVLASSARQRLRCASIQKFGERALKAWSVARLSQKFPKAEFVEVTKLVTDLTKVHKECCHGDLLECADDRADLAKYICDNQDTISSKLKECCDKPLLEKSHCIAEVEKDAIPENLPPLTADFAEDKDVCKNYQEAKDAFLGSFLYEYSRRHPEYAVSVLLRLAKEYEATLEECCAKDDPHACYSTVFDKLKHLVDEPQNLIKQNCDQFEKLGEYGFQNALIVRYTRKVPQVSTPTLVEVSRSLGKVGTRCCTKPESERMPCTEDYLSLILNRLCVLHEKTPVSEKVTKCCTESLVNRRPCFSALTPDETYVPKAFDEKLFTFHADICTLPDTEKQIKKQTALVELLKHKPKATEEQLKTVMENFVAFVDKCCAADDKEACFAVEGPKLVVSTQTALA

B1: recombinant human MD2 (rhMD2) (natural protein, UniProt Q9Y6Y9 19-160, looked up)
chain: QKQYWVCNSSDASISYTYCDKMQYPISINVNPCIELKRSKGLLHIFYIPRRDLKQLYFNLYITVNTMNLPKRKEVICRGSDDDYSFCRALKGETVNTTISFSFKGIKFSKGKYKCVVEAISGSPEEMLFCLEFVILHQPNSN
notes: MD2 (myeloid differentiation 2), human, recombinant; also called human recombinant MD2 protein; source: bought: R&D Systems
The Kd is the free concentration of one partner at which half of the binding sites on the other are occupied at equilibrium, for simple one-to-one binding. B1 came in with a Kd of 81 µM. That is a double-digit micromolar value.
